Experimental data published in publication PMC6423188, “HYNIC and DOMA conjugated radiolabeled bombesin analogs as receptor-targeted probes for scintigraphic detection of breast tumor” (EJNMMI Research, 2019).
Like-named read-outs stand apart in the source and are kept apart here. Where a SMILES comes first, the peptide text is derived from it.

Tests used:
in vitro = in vitro ADME; conditions: rat, serum
Description: (§1) In vitro radiochemical stability of ^99mTc-BN1/^99mTc-BN2/^99mTc-BN3 and ^99mTc-BN4, ^99mTc-BNS were assessed by incubating HPLC purified radiopeptides in phosphate buffer saline (PBS at pH 7.4) and freshly collected rat serum for 1–24 h at […]. Then, 90 μL of radiolabeled peptide ^99mTc-BN1/^99mTc-BN2/^99mTc-BN3/^99mTc-BN4/^99mTc-BNS solution were incubated under agitation at 37 °C with either 1.0 mL saline or fresh rat serum, and the mixtures were incubated at 37 °C for 24 h. Samples were periodically withdrawn from the mixture at 0, 2, 4, 6, 8, 12, and 24 h incubation period and analyzed by ITLC. In the case of rat serum, the aliquot was added to 100 μL 50% trifluoroacetic acid (TFA). After centrifugation (3000 rpm), the supernatant was analyzed by ITLC using acetone as the developing solvent; 10 μL of this mixture was taken at each time point, added to a strip ITLC whereby the percentage of ^99mTc-BN1/^99mTc-BN2/^99mTc-BN3/^99mTc-BN4/^99mTc-BNS was determined using gamma counter.
(§2) In vitro stability of ^99mTc-labeled bombesin analogs incubated at 37 °C with either freshly collected rat serum or normal saline were monitored up to 24 h. […] The new radiolabeled peptide conjugates were stable up to 24 h post labeling period at room temperature, with no observable degradation or transchelation to serum proteins.

[1] = test system: MDA-MB-231 tumor-bearing mice; assay: In vivo biodistribution; parameters: species or system mouse; conditions: BALB/c, mouse, in vivo, iv
Method in brief: (§3)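 BALB/c mice immunosuppressed with cyclosporine-A (30 mg/kg/day i.p.) bore subcutaneous MDA-MB-231 tumours (~0.5 cm); ^99mTc-bombesin analogs given i.v. via tail vein, three mice per group. Organs excised at 5, 30, 60 and 120 min and gamma-counted as decay-corrected %IA/g; blocking used 0.03 nmol tracer (2 MBq) plus 25 nmol unlabelled BN peptide, read at 60 and 120 min.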

In vivo biodistribution = assay: In vivo biodistribution; parameters: species or system mouse; conditions: BALB/c, mouse, in vivo, total radioactivity
Method in brief: as §3

physchem = type: physicochemical; conditions: buffer or solvent, pH 7.4
Description: as §1, §2

## CCCC[C@H](NC(=O)[C@@H](Cc1ccc(O)cc1)NC(=O)[C@H](Cc1c[nH]cn1)NC(=O)[C@H]1CCCN1C(=O)[C@@H](NC(=O)[C@H](C)NC(=O)[C@H](Cc1c[nH]c2ccccc12)NC(=O)[C@H](CCC(N)=O)NC(=O)CCCNC(=O)CN1CCNCCNCCNCC1)C(C)C)C(N)=O [99mTc-BN4, ^99mTc-DOMA-GABA-[Pro^11Tyr^13Nle^14]-BN(7-14)NH2, metal not drawn] (HELM PEPTIDE1{[O=C(CN1CCNCCNCCNCC1)[*:2]].[O=C(CCCN[*:1])[*:2]].Q.W.A.V.[dP].H.[dY].[Nle].[am]}$$$$V2.0)
In vitro
  remaining at 4 h: 97.6 ± 0.05%
  remaining at 6 h: 97 ± 0.18%
  remaining at 8 h: 96.4 ± 0.2%
  remaining at 12 h: 95.2 ± 0.05%
  remaining at 24 h: 93.3 ± 0.02%
[1]; 0.5 h
  Liver uptake: 0.52 ± 0.13 %IA/g
  Stomach uptake: 0.91 ± 0.04 %IA/g
[1]; 1 h
  Pancreas uptake: 1.98 ± 0.02 %IA/g
[1]; 2 h
  Stomach uptake: 0.20 ± 0.01 %IA/g
In vivo biodistribution; iv, Blood uptake
  tissue uptake at 5 min: 0.42 ± 0.01 %ID/g
  tissue uptake at 0.5 h: 0.81 ± 0.01 %ID/g
  tissue uptake at 1 h: 0.42 ± 0.03 %ID/g
  tissue uptake at 2 h: 0.17 %ID/g
In vivo biodistribution; iv, Heart uptake
  tissue uptake at 5 min: 0.73 ± 0.03 %ID/g
  tissue uptake at 0.5 h: 0.67 ± 0.02 %ID/g
  tissue uptake at 1 h: 0.25 ± 0.02 %ID/g
  tissue uptake at 2 h: 0.09 ± 0.04 %ID/g
In vivo biodistribution; iv, Intestine uptake
  tissue uptake at 5 min: 1.01 ± 0.06 %ID/g
  tissue uptake at 0.5 h: 1.6 ± 0.05 %ID/g
  tissue uptake at 1 h: 2.15 ± 0.21 %ID/g
  tissue uptake at 2 h: 0.82 ± 0.05 %ID/g
In vivo biodistribution; iv, Kidney uptake
  tissue uptake at 5 min: 2.17 ± 0.11 %ID/g
  tissue uptake at 0.5 h: 3.95 ± 0.21 %ID/g
  tissue uptake at 1 h: 3.1 ± 0.17 %ID/g
  tissue uptake at 2 h: 2.1 ± 0.13 %ID/g
In vivo biodistribution; iv, Liver uptake
  tissue uptake at 5 min: 0.4 ± 0.03 %ID/g
  tissue uptake at 0.5 h: 0.32 ± 0.13 %ID/g
  tissue uptake at 1 h: 0.28 ± 0.12 %ID/g
  tissue uptake at 2 h: 0.17 ± 0.03 %ID/g
In vivo biodistribution; iv, Lung uptake
  tissue uptake at 5 min: 1.07 ± 0.14 %ID/g
  tissue uptake at 0.5 h: 0.82 ± 0.03 %ID/g
  tissue uptake at 1 h: 0.7 ± 0.02 %ID/g
  tissue uptake at 2 h: 0.25 ± 0.11 %ID/g
In vivo biodistribution; iv, Muscle uptake
  tissue uptake at 5 min: 0.26 ± 0.02 %ID/g
  tissue uptake at 0.5 h: 0.32 ± 0.04 %ID/g
  tissue uptake at 1 h: 0.25 ± 0.02 %ID/g
  tissue uptake at 2 h: 0.1 ± 0.01 %ID/g
In vivo biodistribution; iv, Pancreas uptake
  tissue uptake at 5 min: 2.88 ± 0.11 %ID/g
  tissue uptake at 0.5 h: 4.49 ± 0.03 %ID/g
  tissue uptake at 1 h: 3.75 ± 0.06 %ID/g
  tissue uptake at 2 h: 1.1 ± 0.04 %ID/g
In vivo biodistribution; iv, Spleen uptake
  tissue uptake at 5 min: 0.62 ± 0.04 %ID/g
  tissue uptake at 0.5 h: 0.56 ± 0.01 %ID/g
  tissue uptake at 1 h: 0.24 ± 0.01 %ID/g
  tissue uptake at 2 h: 0.17 ± 0.02 %ID/g
In vivo biodistribution; iv, Stomach uptake
  tissue uptake at 5 min: 0.47 ± 0.02 %ID/g
  tissue uptake at 0.5 h: 0.51 ± 0.04 %ID/g
  tissue uptake at 2 h: 0.12 ± 0.01 %ID/g
In vivo biodistribution; iv, Tumor uptake
  tissue uptake at 5 min: 1.3 ± 0.01 %ID/g
  tissue uptake at 0.5 h: 3.32 ± 0.01 %ID/g
  tissue uptake at 1 h: 2.85 ± 0.02 %ID/g
  tissue uptake at 2 h: 1.31 ± 0.03 %ID/g
In vivo biodistribution; iv, tumor/blood ratio
  tissue to tissue ratio at 5 min: 3
  tissue to tissue ratio at 0.5 h: 4.09
  tissue to tissue ratio at 1 h: 6.78
  tissue to tissue ratio at 2 h: 7.7
In vivo biodistribution; iv, tumor/kidney ratio
  tissue to tissue ratio at 5 min: 0.59
  tissue to tissue ratio at 0.5 h: 0.84
  tissue to tissue ratio at 1 h: 0.91
  tissue to tissue ratio at 2 h: 0.62
In vivo biodistribution; iv, tumor/muscle ratio
  tissue to tissue ratio at 5 min: 5
  tissue to tissue ratio at 0.5 h: 10.4
  tissue to tissue ratio at 1 h: 11.4
  tissue to tissue ratio at 2 h: 12.4
In vivo biodistribution; 60 min p.i., blocked with excess non-radiolabeled BN peptide, MDA-MB-231 tumor, mean ± SD, n = 3, read-out: Tumor uptake
  tissue uptake at 1 h: 0.66 ± 0.2 %ID/g
In vivo biodistribution; 60 min p.i., blocked with excess non-radiolabeled BN peptide, mean ± SD, n = 3, read-out: Blood uptake
  tissue uptake at 1 h: 0.29 ± 0.01 %ID/g
In vivo biodistribution; 60 min p.i., blocked with excess non-radiolabeled BN peptide, mean ± SD, n = 3, read-out: Heart uptake
  tissue uptake at 1 h: 0.27 ± 0.11 %ID/g
In vivo biodistribution; 60 min p.i., blocked with excess non-radiolabeled BN peptide, mean ± SD, n = 3, read-out: Intestine uptake
  tissue uptake at 1 h: 1.66 ± 0.23 %ID/g
In vivo biodistribution; 60 min p.i., blocked with excess non-radiolabeled BN peptide, mean ± SD, n = 3, read-out: Kidney uptake
  tissue uptake at 1 h: 3.18 ± 0.2 %ID/g
In vivo biodistribution; Lung uptake
  tissue uptake at 1 h: 0.78 ± 0.02 %ID/g
In vivo biodistribution; Muscle uptake
  tissue uptake at 1 h: 0.13 ± 0.1 %ID/g
In vivo biodistribution; Spleen uptake
  tissue uptake at 1 h: 0.26 ± 0.03 %ID/g
In vivo biodistribution; Stomach uptake
  tissue uptake at 1 h: 0.63 ± 0.1 %ID/g
physchem
  remaining at 2 h: 95.5 ± 0.03%
  remaining at 4 h: 95 ± 0.07%
  remaining at 6 h: 93.5 ± 0.12%
  remaining at 8 h: 92.5 ± 0.2%
  remaining at 12 h: 90 ± 0.11%
  remaining at 24 h: 88 ± 0.14%
